# Assay results published in patent US4497799A, “Polypeptide carcinostatic agent” (Suntory Ltd., priority 1981, dated 1985).
# Bridges are numbered along the chain shown (N, C = ends). Where no end group is shown, it is not given here.
# Columns and labels:
# Assay type in all cases: in vivo
# [1] = Acute toxicity in the mouse, Swiss Albino
# Protocol: (§1) Animal: mouse (ICR, Swiss Albino and BDF1)
# (§2) ICR (female, average body weight 25.0 g, age 5-6 weeks), Swiss Albino (female, average body weight 22.3 g, 5-6 weeks) and BDF1 (female, average body weight 21.5, 6 weeks) were divided into 6 groups consisting of 6 mice each, and predetermined amounts of SPH dissolved in 0.2 ml of physiological saline were administered intraperitoneally.
# [2] = Acute toxicity in the mouse, overall statement
# Protocol: as §1, §2
# Because the long term toxicity of SPH is low, the condition of the survival mice after recovery is similar to that of the control.
# [3] = Acute toxicity in the mouse, ICR
# Protocol: as §1, §2
# [4] = Acute toxicity in the mouse, BDF1
# Protocol: as §1, §2
sequence,measurement,setting,value
"KSCCRSTLGRNCYNLCRVRGAQKLCAGVCRCKLTSSGKCPTGFPK (disulfide 3-39, 4-31, 12-29, 16-25) [SPH]",No. died (numerator),[1]; 0.50 mg/Kg i.p.,0/6
same,No. died (numerator),[1]; 1.00 mg/Kg i.p.,1/6
same,No. died (numerator),[1]; 1.50 mg/Kg i.p.,4/6
same,No. died (numerator),[1]; 2.00 mg/Kg i.p.,6/6
same,LD50,[1]; i.p.,1.33 mg/kg
same,LD50,"[2]; mouse, i.p., overall from Table 3",about 1.5 mg/Kg
same,long term toxicity,[2]; surviving mice after recovery similar to control,low
same,No. died (numerator),[3]; 0.68 mg/Kg i.p.,0/6
same,No. died (numerator),[3]; 1.36 mg/Kg i.p.,1/6
same,No. died (numerator),[3]; 2.04 mg/Kg i.p.,4/6
same,No. died (numerator),[3]; 2.72 mg/Kg i.p.,6/6
same,LD50,[3]; i.p.,1.81 mg/kg
same,No. died (numerator),[4]; 1.00 mg/Kg i.p.,0/6
same,No. died (numerator),[4]; 1.50 mg/Kg i.p.,2/6
same,No. died (numerator),[4]; 2.00 mg/Kg i.p.,6/6
same,No. died (numerator),[4]; 3.00 mg/Kg i.p.,6/6
same,LD50,[4]; i.p.,1.58 mg/kg
